The values below are quoted from earlier work in paper PMC8322311.

For orientation: Kd means the equilibrium constant for the complex coming apart.

Like-named read-outs stand apart in the source and are kept apart here.

Series [1] concerns the target SHH (Homo sapiens) (UniProt Q15465).
Series [2] has the same target. The source holds these as a separate data set.

Regarding Glypican-3 (from UniProt P51654), the equilibrium dissociation constant (Kd) in series [1] is 32 nM.
In the case of HHIP (from UniProt Q96QV1), in series [2], the equilibrium dissociation constant (Kd) is 6 nM.
